In patent publication US20220401536A1 (published 2022):
Blank lines part the entries; values can stand above or below the binder they belong to.

Tests used:
[1] = molecular target: T1, DD1α-HA (HA-tagged DD1α expressed in 293T cells or on Jurkat cells) (human, UniProt Q9H7M9 33-311); experiment: competition with DD1α-Ig and PD-1-Ig for binding to Jurkat cells transfected with DD1α, flow cytometry
T1 construct: also called Jurkat/DD1α; DD1α-transfected Jurkat cells; not shown: HA tag

[2] = molecular target: mouse PD-1 (endogenous, on mouse CD4+ and CD8+ T cells) (mouse) (UniProt Q02242); experiment: cell-based or functional assay
Sequence of mouse PD-1 (endogenous, on mouse CD4+ and CD8+ T cells) (mouse) (Q02242 25-288): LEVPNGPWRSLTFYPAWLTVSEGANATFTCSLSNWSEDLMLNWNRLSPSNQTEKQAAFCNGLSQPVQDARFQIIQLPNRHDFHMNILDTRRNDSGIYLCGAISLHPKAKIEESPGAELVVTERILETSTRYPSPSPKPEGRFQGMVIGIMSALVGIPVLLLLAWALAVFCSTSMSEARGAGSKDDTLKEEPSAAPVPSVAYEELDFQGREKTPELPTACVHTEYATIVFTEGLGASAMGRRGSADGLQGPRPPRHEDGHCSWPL

- binding result [1]: binds
B1: anti-DD1α monoclonal antibody 2B11 (antibody, V domains shown)
VH: EVQLVESGGDLVKPGGSLKLSCAASGFTFSNYGMSWVRQTPDKRLEYVATINSGGSYTYYPDSVKGRFTISRDNAKTTLYLQMSSLKSEDTAMYYCARIYDYDGDYYALDYWGQGTSVTVSS
VL: DVLMTQTPLSLPVSLGDQASISCRSSQSIVHTNGNTYLEWYLQKPGQSPKLLIYKVSNRFSGVPDRFSGSGSGTDFTLKISRVEAEDLGVYYCFQGSHVPWTFGGGTKLEIK
notes: Purified from hybridoma; also called DD1α-specific Ab 2B11

- CFSE- and Far Red-double-positive events: DD1α-/- CD11b+Gr-1+ MDSCs with PD-1-/- CD8+ T cells [2]: 1.36%
- CFSE- and Far Red-double-positive events: DD1α-null CD11b+Gr-1+ MDSCs with Wt CD8+ T cells [2]: 7.1%
- CFSE- and Far Red-double-positive events: Wt CD11b+Gr-1+ MDSCs with PD-1-/- CD8+ T cells [2]: 6.59%
- CFSE- and Far Red-double-positive events: Wt CD11b+Gr-1+ MDSCs with Wt CD8+ T cells [2]: 22%
- proliferation of CD4+ T cells (CFSE dilution) with DD1α-/- CD11b+Gr-1high MDSCs [2]: 70%
- proliferation of CD8+ T cells (CFSE dilution) with DD1α-/- CD11b+Gr-1high MDSCs [2]: 63%
B2: mouse DD1α (endogenous, on mouse T cells or CD11b+Gr-1+ MDSCs) (receptor, UniProt Q9D659 33-308, looked up)
chain: FKVTTPYSLYVCPEGQNATLTCRILGPVSKGHDVTIYKTWYLSSRGEVQMCKEHRPIRNFTLQHLQHHGSHLKANASHDQPQKHGLELASDHHGNFSITLRNVTPRDSGLYCCLVIELKNHHPEQRFYGSMELQVQAGKGSGSTCMASNEQDSDSITAAALATGACIVGILCLPLILLLVYKQRQVASHRRAQELVRMDSNTQGIENPGFETTPPFQGMPEAKTRPPLSYVAQRQPSESGRYLLSDPSTPLSPPGPGDVFFPSLDPVPDSPNSEAI
